Reference: the supplement of paper PMC7125110
± gives the standard error. This sample holds only a part of the variants without activity.

B1: glmS ribozyme (parent)
chain: AUAAAAGCGCCAGAACUACAGAAAUGUAGUUGACGAGGAGGAGGUUUAUCGAAUUUUCGGCGGAUGCCUCCAAA

Experiments:
Conditions in all cases: with glucosamine-6-phosphate
glucosamine-6-phosphate [1] = variants of: B1; experiment: self-cleavage kobs at 160 uM GlcN6P; higher = faster cleavage; RNA array
In short: (§1)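 Barcoded ribozyme variants were transcribed in situ on sequenced MiSeq chips by E. coli RNA polymerase. At 37 °C, a hybridised Cy3 probe tracked them while glucosamine-6-phosphate (40 μM to 10 mM) in HEPES/KCl/Mg(OAc)2 buffer flowed in and tiles were imaged over ~14 h. Per-tile medians of signals normalised to baseline and to non-cleaving reference variants were fit to one- or two-exponential decays, giving kobs. kcat and KM came from weighted Michaelis–Menten fits across concentrations.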

glucosamine-6-phosphate [2] = variants of: B1; experiment: self-cleavage kobs at 640 uM GlcN6P; higher = faster cleavage; RNA array
In short: as §1

glucosamine-6-phosphate [3] = variants of: B1; experiment: self-cleavage kobs at 10000 uM GlcN6P; higher = faster cleavage; RNA array
In short: as §1

glucosamine-6-phosphate [4] = variants of: B1; experiment: self-cleavage kobs at 2500 uM GlcN6P; higher = faster cleavage; RNA array
In short: as §1

Variant | self-cleavage kobs at 160 uM GlcN6P (glucosamine-6-phosphate [1]) [s⁻¹] | self-cleavage kobs at 640 uM GlcN6P (glucosamine-6-phosphate [2]) [s⁻¹] | self-cleavage kobs at 10000 uM GlcN6P (glucosamine-6-phosphate [3]) [s⁻¹] | self-cleavage kobs at 2500 uM GlcN6P (glucosamine-6-phosphate [4]) [s⁻¹]
C11G A14G G29A | < 1e-05 |  |  | 
U30C G35U G40U A42G U47C | < 1e-05 | < 1e-05 |  | 
G9C U46G | < 1e-05 | < 1e-05 | < 1e-05 | 
C16G A42G G60C C70U | < 1e-05 |  |  | < 1e-05
G32U G51U | < 1e-05 | < 1e-05 |  | 
G51A U57C | < 1e-05 | < 1e-05 | < 1e-05 | < 1e-05
G41C A52C G60A G63A G66A C68U | < 1e-05 | < 1e-05 |  | 
G41U C68U U69C | < 1e-05 | < 1e-05 |  | < 1e-05
A42G C50G A64G | < 1e-05 |  |  | 
G35C U46C C50A | < 1e-05 |  | < 1e-05 | 
G7A A15U | < 1e-05 |  |  | 
A6G G44A C71A | < 1e-05 | < 1e-05 | < 1e-05 | < 1e-05
C16G A42G A53G C67G | 0.000151 ± 3.4e-05 | 0.000268 ± 5.9e-05 |  | 0.000323 ± 8.1e-05
G9U C67A | < 1e-05 | < 1e-05 | < 1e-05 | < 1e-05
C34U C67A | < 1e-05 |  |  | < 1e-05
G35A U49A C67G C68G | 0.000246 ± 7.8e-05 | 9.7e-05 ± 2.3e-05 |  | 0.000118 ± 3.7e-05
U31G A33U G38U | < 1e-05 |  |  | 
G29U U49C C50G C70A | 5.5e-05 ± 2.2e-05 | 0.000125 ± 5.5e-05 |  | 
A14C A36G U46G U65A | < 1e-05 | < 1e-05 |  | 
U30A U56G | 0.000202 ± 6.6e-05 | 0.00118 ± 0.00024 |  | 0.0019 ± 0.00059
A36U U45A | < 1e-05 | < 1e-05 |  | 
G43C C61U | < 1e-05 | < 1e-05 | < 1e-05 | < 1e-05
C10G C19A A48C | < 1e-05 | < 1e-05 |  | 
G7A G9U C50U | < 1e-05 |  |  | < 1e-05
G7C U45A | < 1e-05 | < 1e-05 | < 1e-05 | < 1e-05
A15G G63A U69G | 4.54e-05 ± 2e-05 | 0.000141 ± 4.8e-05 |  | 

Variant | self-cleavage kobs at 160 uM GlcN6P (glucosamine-6-phosphate [1]) [s⁻¹] | self-cleavage kobs at 640 uM GlcN6P (glucosamine-6-phosphate [2]) [s⁻¹] | self-cleavage kobs at 10000 uM GlcN6P (glucosamine-6-phosphate [3]) [s⁻¹] | self-cleavage kobs at 2500 uM GlcN6P (glucosamine-6-phosphate [4]) [s⁻¹]
G9A U65G | < 1e-05 | < 1e-05 |  | 
G9A C16U G41A A48U | < 1e-05 | < 1e-05 | < 1e-05 | < 1e-05
C34U G43U C50A G51U U55G | < 1e-05 |  |  | 
A14G A36C | < 1e-05 | < 1e-05 |  | 
G13U U47G A52C | < 1e-05 |  |  | < 1e-05
G59A G62U | < 1e-05 |  |  | < 1e-05
G41U G44C U54C | < 1e-05 | < 1e-05 |  | < 1e-05
A15C U30A C67A | 0.000277 ± 6.8e-05 | 0.000357 ± 8.3e-05 |  | 0.0013 ± 0.0005
G40A U55A | 0.000151 ± 5.3e-05 | 0.00156 ± 0.0003 |  | 0.000842 ± 0.00022
G29A A53U C67A | 7.84e-05 ± 1.8e-05 | 0.00017 ± 4e-05 |  | 0.000241 ± 7.1e-05
C61G G62U | < 1e-05 | < 1e-05 |  | < 1e-05
A6U G44U C61U | < 1e-05 | < 1e-05 |  | < 1e-05
C11A A39C U49C | < 1e-05 |  |  | < 1e-05
A6C G44U | < 1e-05 | < 1e-05 | < 1e-05 | < 1e-05
U31C U56G G60C | < 1e-05 | < 1e-05 | < 1e-05 | 
A15U G37U | < 1e-05 |  | < 1e-05 | 
A33G A42U G59U | < 1e-05 |  |  | 
G62U C68G | < 1e-05 | < 1e-05 | < 1e-05 | 
U49A U54A C70G | 4.17e-05 ± 1.8e-05 |  |  | 
G13A U30A U31A A42C U46G | < 1e-05 |  |  | < 1e-05
C16U A52G C71G | 0.000103 ± 3.1e-05 | 5.85e-05 ± 1.3e-05 |  | 0.000175 ± 3.2e-05
G9A U65G C71G | < 1e-05 | < 1e-05 |  | < 1e-05
G40A C50U | < 1e-05 | < 1e-05 | < 1e-05 | 
C10G G41C G63U | < 1e-05 | < 1e-05 |  | 
C34U G63A G66U | < 1e-05 | < 1e-05 |  | 
G9U G32C G35C A64G | < 1e-05 | < 1e-05 |  | < 1e-05

Variant | self-cleavage kobs at 160 uM GlcN6P (glucosamine-6-phosphate [1]) [s⁻¹] | self-cleavage kobs at 640 uM GlcN6P (glucosamine-6-phosphate [2]) [s⁻¹] | self-cleavage kobs at 10000 uM GlcN6P (glucosamine-6-phosphate [3]) [s⁻¹] | self-cleavage kobs at 2500 uM GlcN6P (glucosamine-6-phosphate [4]) [s⁻¹]
G37A G60A G66U | < 1e-05 |  |  | 
G32U C50A G59A | < 1e-05 | < 1e-05 |  | 
A15C A39U A42C C67G | < 1e-05 | < 1e-05 |  | < 1e-05
A6G C11U G43C | < 1e-05 | < 1e-05 |  | 
A6C A15U C16U | < 1e-05 |  |  | 
C11A G13A A39G | < 1e-05 | < 1e-05 |  | 
A14U U47C U49A | < 1e-05 |  |  | 
G35A U55C C70A | < 1e-05 | < 1e-05 |  | 
U57A G60A | < 1e-05 |  |  | 
A33G A53C G59A | < 1e-05 |  | < 1e-05 | < 1e-05
G7U G62A C67A | < 1e-05 | < 1e-05 |  | < 1e-05
G35A G41C U69A | < 1e-05 | < 1e-05 |  | < 1e-05
C58A G59C | < 1e-05 | < 1e-05 | < 1e-05 | 
G7U G59A | < 1e-05 | < 1e-05 | < 1e-05 | < 1e-05
C34G G40U G41A C58U | < 1e-05 | < 1e-05 |  | 
C11A A33U G66A | < 1e-05 | < 1e-05 |  | < 1e-05
C8U U30C G59U | < 1e-05 | < 1e-05 |  | < 1e-05
A14C A48U G60U | < 1e-05 | < 1e-05 |  | 
G7U C10G A33U C34U C67G C68A | 6.38e-05 ± 2.3e-05 | 3.4e-05 ± 1.7e-05 |  | 
A6G U47C U55C C71U | < 1e-05 | < 1e-05 |  | < 1e-05
G13A G41U G43C | < 1e-05 | < 1e-05 |  | 
A6C C8U C34A | < 1e-05 | < 1e-05 |  | < 1e-05
G38C A42C | < 1e-05 | < 1e-05 | < 1e-05 | < 1e-05
G7A U54C U65G C67U | < 1e-05 | < 1e-05 |  | < 1e-05
G35C U69G | < 1e-05 |  |  | < 1e-05
G43A U45A C61G | < 1e-05 | < 1e-05 |  | 

Variant | self-cleavage kobs at 160 uM GlcN6P (glucosamine-6-phosphate [1]) [s⁻¹] | self-cleavage kobs at 640 uM GlcN6P (glucosamine-6-phosphate [2]) [s⁻¹] | self-cleavage kobs at 10000 uM GlcN6P (glucosamine-6-phosphate [3]) [s⁻¹] | self-cleavage kobs at 2500 uM GlcN6P (glucosamine-6-phosphate [4]) [s⁻¹]
C10A U31G A42U | < 1e-05 | < 1e-05 |  | < 1e-05
G38C U54G | < 1e-05 | < 1e-05 | < 1e-05 | 
G13A G41C C67U | < 1e-05 | < 1e-05 |  | < 1e-05
G43C U55A | < 1e-05 | < 1e-05 |  | 
G9A C11A G35A U47C C68A | < 1e-05 |  |  | < 1e-05
G37A U49C | < 1e-05 | < 1e-05 | < 1e-05 | < 1e-05
G60U A64C G66U C70A | < 1e-05 |  |  | 
A36C G41A G66U | < 1e-05 |  |  | < 1e-05
A15C G40A U45A C70G | < 1e-05 | < 1e-05 |  | 
C8U A12C G43C U49C | < 1e-05 | < 1e-05 | < 1e-05 | < 1e-05
A12U A15G C16G U30C A33U A48G G66A | < 1e-05 | < 1e-05 |  | 
A12U G51A U55C | < 1e-05 |  |  | 
G38A G40A U49G G60U | < 1e-05 | < 1e-05 |  | < 1e-05
A12G G51A | < 1e-05 | < 1e-05 | < 1e-05 | 
A12U G13U A48U G51C U54G C71U | < 1e-05 | < 1e-05 |  | < 1e-05
G9A C10U G13A A52C | < 1e-05 | < 1e-05 |  | < 1e-05
A14U C34A G60A C61A | < 1e-05 |  | < 1e-05 | 
G13U A14U U57C | < 1e-05 |  |  | < 1e-05
A15C A36G G38U | < 1e-05 |  |  | < 1e-05
A15C G29U C67A | 9.38e-05 ± 3.4e-05 | 0.000156 ± 2.9e-05 |  | 0.000163 ± 4.2e-05
C10A U57A A64G C67G C71A | 0.000245 ± 7.6e-05 |  |  | 8.51e-05 ± 3.3e-05
A39G A52U C61G A64C | < 1e-05 | < 1e-05 |  | < 1e-05
A12G A14U A15U | 4.38e-05 ± 2.1e-05 |  |  | 
